Experiments:
[1] = molecular target: T1, soluble cynomolgus GPNMB (recombinant extracellular domain) (cynomolgus, UniProt Q14956 23-499 (human entry), limits assumed); test: SPR Carterra, Ab immobilized
T1 chain: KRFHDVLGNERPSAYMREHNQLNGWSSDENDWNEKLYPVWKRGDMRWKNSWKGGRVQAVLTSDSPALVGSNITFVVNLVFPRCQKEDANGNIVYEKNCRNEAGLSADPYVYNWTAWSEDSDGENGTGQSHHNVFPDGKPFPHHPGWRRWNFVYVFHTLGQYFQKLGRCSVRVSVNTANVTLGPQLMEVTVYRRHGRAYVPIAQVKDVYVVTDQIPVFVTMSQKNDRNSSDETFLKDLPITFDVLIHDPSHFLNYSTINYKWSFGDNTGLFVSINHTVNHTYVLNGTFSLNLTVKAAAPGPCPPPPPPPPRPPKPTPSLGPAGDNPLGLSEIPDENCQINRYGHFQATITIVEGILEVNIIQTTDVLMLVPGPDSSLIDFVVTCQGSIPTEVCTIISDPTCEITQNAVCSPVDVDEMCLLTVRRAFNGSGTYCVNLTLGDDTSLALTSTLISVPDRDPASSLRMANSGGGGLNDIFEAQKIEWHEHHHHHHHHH
In short: (§1)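 Antibodies amine-coupled on HC200M chip in a 96-spot array; recombinant GPNMB ECD analytes injected at 2.5–600 nM, lowest to highest, without regeneration. Running buffer HBS-EP+ with 0.5 mg/ml BSA; two buffer blanks between species series. Kinetics fitted to yield affinity estimates.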

[2] = molecular target: T2, soluble human GPNMB (recombinant extracellular domain) (human, UniProt Q14956 23-498); test: SPR Carterra, Ab immobilized
T2 construct: also called huGPNMB; recombinant human GPNMB extracellular domain; not shown: C-terminal polyhistidine or Avi-His tag
T2 sequence: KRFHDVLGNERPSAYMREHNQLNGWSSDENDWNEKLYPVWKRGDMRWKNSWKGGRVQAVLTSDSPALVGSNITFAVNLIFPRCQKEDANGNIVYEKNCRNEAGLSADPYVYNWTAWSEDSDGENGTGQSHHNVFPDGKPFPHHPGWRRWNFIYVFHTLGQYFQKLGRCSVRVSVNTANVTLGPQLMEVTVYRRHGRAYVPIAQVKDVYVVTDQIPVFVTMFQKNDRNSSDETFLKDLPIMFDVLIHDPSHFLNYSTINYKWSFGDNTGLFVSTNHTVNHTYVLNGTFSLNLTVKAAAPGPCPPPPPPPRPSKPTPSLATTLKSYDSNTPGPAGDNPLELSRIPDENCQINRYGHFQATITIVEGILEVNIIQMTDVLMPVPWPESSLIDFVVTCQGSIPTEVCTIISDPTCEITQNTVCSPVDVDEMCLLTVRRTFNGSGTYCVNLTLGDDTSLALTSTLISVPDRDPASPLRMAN
In short: as §1

[3] = molecular target: T3, mouse GPNMB endogenously expressed on B16F10 cells (mouse, UniProt Q99P91 23-574); test: FACS on B16F10 mouse melanoma cells (endogenous mouse GPNMB); single antibody concentration (not given); APC anti-human IgG secondary; MFI as fold over background
T3 construct: whole, on cells; also called moGPNMB
T3 sequence (looked up): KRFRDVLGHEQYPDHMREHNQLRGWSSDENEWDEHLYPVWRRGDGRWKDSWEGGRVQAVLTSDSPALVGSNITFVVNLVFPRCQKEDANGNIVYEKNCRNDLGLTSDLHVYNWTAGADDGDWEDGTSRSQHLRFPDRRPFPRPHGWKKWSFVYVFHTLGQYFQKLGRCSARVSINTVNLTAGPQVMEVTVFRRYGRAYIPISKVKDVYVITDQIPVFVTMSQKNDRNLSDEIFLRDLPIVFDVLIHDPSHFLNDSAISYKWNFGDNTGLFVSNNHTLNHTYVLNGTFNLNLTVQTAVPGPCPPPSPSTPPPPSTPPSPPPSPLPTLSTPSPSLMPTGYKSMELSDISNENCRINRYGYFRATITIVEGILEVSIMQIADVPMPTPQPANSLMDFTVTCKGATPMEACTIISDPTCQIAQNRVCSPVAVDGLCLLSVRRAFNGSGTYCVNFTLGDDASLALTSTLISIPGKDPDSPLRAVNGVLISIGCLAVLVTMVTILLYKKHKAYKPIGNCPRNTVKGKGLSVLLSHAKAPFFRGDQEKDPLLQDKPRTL
Protocol: Recombinant anti-GPNMB antibodies of the present disclosure were examined for their ability to bind human and/or mouse GPNMB expressed on Freestyle293-huGPNMB+ or B16F10 cells, respectively. B16F10 cells are a murine melanoma cell line from a C57BL/6J mouse that endogenously express high levels of mouse GPNMB. The antibodies were also tested for their ability to bind to a human macrophage cell line (U937 cells) engineered to express human GPNMB. Cells were harvested, plated at 100,000 cells/well in a 96-well round bottom plate, and incubated in 100 μl FACS buffer (PBS containing 2% FBS, 2 mM EDTA) containing anti-GPNMB monoclonal antibodies of the present disclosure for 30 minutes on ice. Cells were then washed and incubated in 100 ul FACS buffer containing 1 μg/ml APC-conjugated anti-human IgG secondary antibody for 30 minutes in ice. Cells were washed twice in cold FACS buffer and acquired on a BD FACS Canto. Data analysis and calculation of MFI values was performed with FlowJo (TreeStar) software version 10.0.7. […]

Kd [1]: 97.9 nM | koff [1]: 0.0021 s⁻¹ | kon [1]: 21000 M⁻¹ s⁻¹ | Kd [2]: 73.9 nM | koff [2]: 0.0032 s⁻¹ | kon [2]: 54000 M⁻¹ s⁻¹ | binding result [3]: no binding
B1: anti-GPNMB antibody GPN-06 (antibody, human IgG1, V domains shown)
VH: QVQLQQSGAELVKPGASVKLSCKASGYTFTNYYMYWVKQRPGQGLEWIGEINTRNGGTNFNEKFKSKATLTVDKSSSTAYMQLSSLTSEDSAVYYCTTGFAYWGQGTLVTVSA
VL: DIQMTQSPASLSASVGETVTITCRASENIYSYLVWYQQNQGKSPQLLVYNAKTLAEGVPSRFSGSGSGTQFSLKINSLQPEDFGTYYCQHHYGTPFTFGSGTKLEIK
notes: chimeric
